Assay results taken from patent US20230149543A1 (GlaxoSmithKline, published 2023).

Molecular target: T1, human ICOS (Inducible T-cell COStimulator) receptor on peripheral CD4 and CD8 T cells (human, UniProt Q9Y6W8 21-199)
T1 construct: Native ICOS on T cells of treated subjects; also called ICOS receptor; CD278
T1 sequence: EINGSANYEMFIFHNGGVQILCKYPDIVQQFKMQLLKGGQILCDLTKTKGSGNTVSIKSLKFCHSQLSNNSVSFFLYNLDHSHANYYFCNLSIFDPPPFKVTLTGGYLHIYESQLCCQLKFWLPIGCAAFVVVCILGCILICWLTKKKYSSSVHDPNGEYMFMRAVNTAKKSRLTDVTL
Test: ICOS receptor occupancy on peripheral CD4 and CD8 T cells of dosed subjects (clinical pharmacodynamic analysis)

B1: H2L5 hIgG4PE (antibody, V domains shown)
VH: QVQLVQSGAEVKKPGSSVKVSCKASGYTFTDYAMHWVRQAPGQGLEWMGLISIYSDHTNYNQKFQGRVTITADKSTSTAYMELSSLRSEDTAVYYCGRNNYGNYGWYFDVWGQGTTVTVSS
VL: EIVLTQSPATLSLSPGERATLSCSASSSVSYMHWYQQKPGQAPRLLIYDTSKLASGIPARFSGSGSGTDYTLTISSLEPEDFAVYYCFQGSGYPYTFGQGTKLEIKR
notes: Humanized IgG4PE (S228P, L235E) monoclonal antibody; also called H2L5 IgG4PE; feladilimab
Question: Does B1 bind?
Answer: binds
